Laboratory results taken from paper PMC1904107.

Biological target: caldesmon(302–564) (UniProt Q05682)
Assay: fluorescence cross-correlation spectroscopy

Kd: 500 nM
Substance: CaM(1–149) (from UniProt P0DP23 1-149) (natural protein)
